The text below walks through data of PMC12412668.

Where only a bound is given, the exact number is not on record here.

In assay [1] the target is T1, CD96 on primary human CD4^+ T cells and PBMCs (human (endogenous in primary CD4^+ T cells and PBMCs)) (UniProt P40200).
T1 sequence: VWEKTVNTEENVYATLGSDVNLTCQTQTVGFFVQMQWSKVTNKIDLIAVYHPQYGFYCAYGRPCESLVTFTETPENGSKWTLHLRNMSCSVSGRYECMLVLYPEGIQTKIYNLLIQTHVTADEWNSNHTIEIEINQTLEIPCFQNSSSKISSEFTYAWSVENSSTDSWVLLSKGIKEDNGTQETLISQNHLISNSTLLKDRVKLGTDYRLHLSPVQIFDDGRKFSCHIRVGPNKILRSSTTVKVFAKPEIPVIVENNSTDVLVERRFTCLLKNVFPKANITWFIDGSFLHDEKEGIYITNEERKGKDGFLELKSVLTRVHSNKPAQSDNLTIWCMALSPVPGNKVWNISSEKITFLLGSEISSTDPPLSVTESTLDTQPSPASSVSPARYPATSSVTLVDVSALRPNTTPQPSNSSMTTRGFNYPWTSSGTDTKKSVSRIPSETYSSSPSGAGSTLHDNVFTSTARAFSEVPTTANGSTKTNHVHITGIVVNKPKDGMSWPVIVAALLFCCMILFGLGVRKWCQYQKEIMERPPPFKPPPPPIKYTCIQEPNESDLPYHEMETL

The target in assay [2] is T1, CD96 on primary human CD4^+ T cells and PBMCs (human (endogenous in primary CD4^+ T cells and PBMCs)). This is another data set of the same source.

B1: Recombinant human CD155-Fc chimera (carrier-free) (Fc fusion)
chain: WPPPGTGDVVVQAPTQVPGFLGDSVTLPCYLQVPNMEVTHVSQLTWARHGESGSMAVFHQTQGPSYSESKRLEFVAARLGAELRNASLRMFGLRVEDEGNYTCLFVTFPQGSRSVDIWLRVLAKPQNTAEVQKVQLTGEPVPMARCVSTGGRPPAQITWHSDLGGMPNTSQVPGFLSGTVTVTSLWILVPSSQVDGKNVTCKVEHESFEKPQLLTVNLTVYYPPEVSISGYDNNWYLGQNEATLTCDARSNPEPTGYNWSTTMGPLPPFAVAQGAQLLIRPVDKPINTTLICNVTNALGARQAELTVQVKEGPPSEHSGISRN
Molecule B1 displayed an adherence of primary CD4^+ T cells (mock-infected or infected with WT HIV-1) to wells coated with CD155-Fc, percent adherent cells by flow cytometry in assay [1] of 20%.

B2: Human CD155 (PVR) Fc chimera recombinant protein (Fc fusion)
chain: WPPPGTGDVVVQAPTQVPGFLGDSVTLPCYLQVPNMEVTHVSQLTWARHGESGSMAVFHQTQGPSYSESKRLEFVAARLGAELRNASLRMFGLRVEDEGNYTCLFVTFPQGSRSVDIWLRVLAKPQNTAEVQKVQLTGEPVPMARCVSTGGRPPAQITWHSDLGGMPNTSQVPGFLSGTVTVTSLWILVPSSQVDGKNVTCKVEHESFEKPQLLTVNLTVYYPPEVSISGYDNNWYLGQNEATLTCDARSNPEPTGYNWSTTMGPLPPFAVAQGAQLLIRPVDKPINTTLICNVTNALGARQAELTVQVKEGPPSEHSGISRN
Take B2: the IFN-γ release (ELISpot) of PBMCs stimulated with HCMV pp65 peptide and costimulated with soluble CD155 (5 μg/ml), fold change relative to pp65 alone in assay [2] was below 8 fold.
